Experimental data from patent EP4703377A1.

Experiments:
[1] = target: Recombinant HA antigen H9, A/guinea fowl/Hong Kong/WF10/99 (H9N2) (influenza A virus A/guinea fowl/Hong Kong/WF10/99 (H9N2)); assay: ELISA on plate-coated recombinant HA; AUC of the absorbance (490 nm) curve
[2] = target: Recombinant HA antigen H17, A/little yellow-shouldered bat/Guatemala/060/2010 (H17N10) (influenza A virus A/little yellow-shouldered bat/Guatemala/060/2010 (H17N10)); assay: as above
[3] = target: Recombinant HA antigen H5, A/Laos/JP127/2004 (H5N1) (influenza A virus A/Laos/JP127/2004 (H5N1)); assay: as above
[4] = target: Recombinant HA antigen H4, A/duck/Czechoslovakia/1956 (H4N6) (influenza A virus A/duck/Czechoslovakia/1956 (H4N6)) (UniProt P19696); assay: as above
[5] = target: Recombinant HA antigen H6, A/mallard/Sweden/81/2002 (H6N1) (influenza A virus A/mallard/Sweden/81/2002 (H6N1)); assay: as above
[6] = target: Recombinant HA antigen H8, A/mallard/Sweden/24/2002 (H8N4) (influenza A virus A/mallard/Sweden/24/2002 (H8N4)); assay: as above
[7] = target: Recombinant HA antigen H10, A/mallard/Interior Alaska/10BM01929R0/2010 (H10N7) (influenza A virus A/mallard/Interior Alaska/10BM01929R0/2010 (H10N7)); assay: as above
[8] = target: Recombinant HA antigen H15, A/shearwater/Australia/2576/1979 (H15N9) (influenza A virus A/shearwater/Australia/2576/1979 (H15N9)); assay: as above
[9] = target: Recombinant HA antigen H13, A/black-headed gull/Sweden/1/1999 (H13N6) (influenza A virus A/black-headed gull/Sweden/1/1999 (H13N6)); assay: as above
[10] = target: Recombinant HA antigen H12, A/mallard/Interior Alaska/7MP0167/2007 (H12N5) (influenza A virus A/mallard/Interior Alaska/7MP0167/2007 (H12N5)); assay: as above
[11] = target: Recombinant HA antigen H18, A/flat-faced bat/Peru/033/2010 (H18N11) (influenza A virus A/flat-faced bat/Peru/033/2010 (H18N11)); assay: as above
[12] = target: Recombinant HA antigen H14, A/mallard/Astrakhan/263/1982 (H14N5) (influenza A virus A/mallard/Astrakhan/263/1982 (H14N5)); assay: as above
[13] = target: Recombinant HA antigen H16, A/black-headed gull/Sweden/5/99 (H16N3) (influenza A virus A/black-headed gull/Sweden/5/99 (H16N3)); assay: as above
[14] = target: Recombinant HA antigen A/Narita/1/2009 (H1N1pdm09) (influenza A virus A/Narita/1/2009 (H1N1pdm09)); assay: as above
[15] = target: Recombinant HA antigen H2, A/Japan/305/57 (H2N2) (influenza A virus A/Japan/305/57 (H2N2)) (UniProt P03451); assay: as above
[16] = target: Recombinant HA antigen H11, A/northern shoveler/Netherlands/18/1999 (H11N9) (influenza A virus A/northern shoveler/Netherlands/18/1999 (H11N9)); assay: as above
[17] = target: Recombinant HA antigen A/Anhui/1/2013 (H7N9) (influenza A virus A/Anhui/1/2013 (H7N9)); assay: as above
[18] = target: Recombinant HA antigen H1, A/South Carolina/1/1918 (H1N1) (influenza A virus A/South Carolina/1/1918 (H1N1)) (UniProt Q9WFX3); assay: as above
[19] = target: Recombinant HA antigen H3, A/Hong Kong/1/68 (H3N2) (influenza A virus A/Hong Kong/1/68 (H3N2)) (UniProt Q91MA7); assay: as above
H3 LAH [20] = assay: ELISA on H3 LAH at 15.625 ng/mL clone 5
H3 LAH [21] = target: H3 LAH

B1: Clone 7 (antibody, V domains shown)
VH: QVQLQESGPGLVKPSETLSLTCSVSGGPLTSSTYFWGWIRQPPGKGLEWLGSINFRGTTDNAPSLKSRVTLSIDTSTHQFSLRLSSVTAKDTAVYYCARHTQRLTVFTVVHGFDLWGQGTVVSVSS
VL: QSALTQPASVSGSPGQSITISCTGATGDIGVSDFVSWYQQHPGKAPKLIIFDVTNRPSGVSNRFSGSKSVNTASLTISGLQAEDEADYYCCLYSTRSRDWEFGGGTKLTVL
AUC value [1]: 3240
AUC value [2]: 3350
AUC value [3]: 3290
AUC value [4]: 3250
AUC value [5]: 3220
AUC value [6]: 3320
AUC value [7]: 3220
AUC value [8]: 3270
AUC value [9]: 1560
AUC value [10]: 3340
AUC value [11]: 3160
AUC value [12]: 3320
AUC value [13]: 3200
AUC value [14]: 3350
AUC value [15]: 3300
AUC value [16]: 300
AUC value [17]: 3260
AUC value [18]: 3320

B2: Clone 6 (antibody, V domains shown)
VH: QVQLEQSGAEVKKPGSSVKVSCKASGPMFSRSAFSWVRQAPGQGLEWMGRIIPTVDLKNYAQKFQGRVTFTADKSTATSYMELRSLKSEDTAVYYCARMGSGSSYYGMDVWGLGTTVTVSS
VL: DIVMTQSPLSLPVIPGEPASISCRSSQSLLQSNGNNYLDWYLQKPGQSPQLLIYLGSNRASGVPDRFSGSGSGTDFTLTISRVEAEDVGVYYCLQARQSSVLTFGGGTKLEIK
AUC value [1]: 632
AUC value [2]: 3370
AUC value [3]: 3240
AUC value [4]: 3310
AUC value [5]: 2800
AUC value [6]: 474
AUC value [7]: 3330
AUC value [8]: 3360
AUC value [9]: 117
AUC value [10]: 98.5
AUC value [11]: 3240
AUC value [12]: 3360
AUC value [13]: 290
AUC value [14]: 2480
AUC value [19]: 3300
AUC value [15]: 3310
AUC value [16]: 757
AUC value [17]: 3320
AUC value [18]: 3360

B3: Clone 5 (antibody, V domains shown)
VH: QVQLQESGPGLVKPSETLSLTCTVSGVSMNSNHWSWIRQAPGKELEWIGYIYYTGKTFYNPSLQSRVTVSLDTSKNQFYLKLTSVTAADTAVYYCARRAMASVQRGILRVFDLWGQGKMVTVSS
VL: DIQMTQSPSTLSASVGDRVTITCRASQIIDKWLAWYQHKPGKAPKLLIYEASNLETGVPSRFSGSGSGTEFTLTISSLQPDDFATYFCQQYKSYLPYTFGQGTKLEIK
absorbance (H3 LAH [20]): 0.877 absorbance
titer (H3 LAH [21]): 0.92 AU/mL
